Tests used:
[1] = target: Hck (UniProt P08631); test: phosphorylation enrichment, bacterial display (enrichment ratio); higher = better substrate or ligand; peptides without Tyr show the background
[2] = target: EPHB2 (UniProt P29323); test: as above
[3] = test system: Fer (mouse); test: as above
[4] = target: Fyn (UniProt P06241); test: as above
[5] = target: EPHB1 (UniProt P54762); test: as above
[6] = target: Fes (UniProt P07332); test: as above
[7] = test system: AncSZ; test: as above
[8] = target: FGFR1 (UniProt P11362); test: as above
[9] = test system: c-Abl (mouse); test: as above
[10] = target: FGFR3 (UniProt P22607); test: as above
[11] = target: Jak2 (UniProt O60674); test: as above
[12] = test system: c-Src; test: as above
[13] = target: MERTK (UniProt Q12866); test: as above
[14] = target: c-Src SH2; test: SH2 binding enrichment of the phosphorylated peptide, bacterial display (enrichment ratio); higher = better substrate or ligand; peptides without Tyr show the background
[15] = target: SHP2-C SH2; test: as above
[16] = target: Grb2 SH2 (UniProt P62993); test: as above
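For SH2 binding enrichment of the phosphorylated peptide, bacterial display in this document: peptide library displayed on the E. coli surface as eCPX fusions, selected cells deep-sequenced, score is each peptide's frequency after selection divided by its frequency in the input.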
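For phosphorylation enrichment, bacterial display in this document: 11-residue human phosphosite peptides and single-mutation variants displayed on the E. coli surface, counted by deep sequencing, each peptide's frequency after selection divided by its frequency in the unselected input library; frequency after pTyr selection over input frequency; kinase dosed for 20-30% of maximal phosphorylation in three min.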

Sequence of Hck (P08631 whole entry, looked up): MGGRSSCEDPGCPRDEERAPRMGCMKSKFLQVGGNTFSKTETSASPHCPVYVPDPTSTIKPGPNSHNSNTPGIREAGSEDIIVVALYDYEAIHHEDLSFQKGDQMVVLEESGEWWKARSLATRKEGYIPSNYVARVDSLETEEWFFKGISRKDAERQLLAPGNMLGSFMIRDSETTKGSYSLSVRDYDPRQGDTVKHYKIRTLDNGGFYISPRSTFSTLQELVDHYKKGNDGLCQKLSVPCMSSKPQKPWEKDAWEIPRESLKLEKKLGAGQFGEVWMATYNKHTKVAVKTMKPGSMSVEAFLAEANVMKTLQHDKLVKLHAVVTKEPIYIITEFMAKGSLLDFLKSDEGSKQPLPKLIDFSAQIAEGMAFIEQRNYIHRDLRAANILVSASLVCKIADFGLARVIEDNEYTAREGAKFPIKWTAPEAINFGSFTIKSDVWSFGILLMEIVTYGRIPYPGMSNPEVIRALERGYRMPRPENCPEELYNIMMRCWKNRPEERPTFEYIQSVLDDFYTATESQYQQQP
Sequence of FGFR1 (P11362 whole entry, looked up): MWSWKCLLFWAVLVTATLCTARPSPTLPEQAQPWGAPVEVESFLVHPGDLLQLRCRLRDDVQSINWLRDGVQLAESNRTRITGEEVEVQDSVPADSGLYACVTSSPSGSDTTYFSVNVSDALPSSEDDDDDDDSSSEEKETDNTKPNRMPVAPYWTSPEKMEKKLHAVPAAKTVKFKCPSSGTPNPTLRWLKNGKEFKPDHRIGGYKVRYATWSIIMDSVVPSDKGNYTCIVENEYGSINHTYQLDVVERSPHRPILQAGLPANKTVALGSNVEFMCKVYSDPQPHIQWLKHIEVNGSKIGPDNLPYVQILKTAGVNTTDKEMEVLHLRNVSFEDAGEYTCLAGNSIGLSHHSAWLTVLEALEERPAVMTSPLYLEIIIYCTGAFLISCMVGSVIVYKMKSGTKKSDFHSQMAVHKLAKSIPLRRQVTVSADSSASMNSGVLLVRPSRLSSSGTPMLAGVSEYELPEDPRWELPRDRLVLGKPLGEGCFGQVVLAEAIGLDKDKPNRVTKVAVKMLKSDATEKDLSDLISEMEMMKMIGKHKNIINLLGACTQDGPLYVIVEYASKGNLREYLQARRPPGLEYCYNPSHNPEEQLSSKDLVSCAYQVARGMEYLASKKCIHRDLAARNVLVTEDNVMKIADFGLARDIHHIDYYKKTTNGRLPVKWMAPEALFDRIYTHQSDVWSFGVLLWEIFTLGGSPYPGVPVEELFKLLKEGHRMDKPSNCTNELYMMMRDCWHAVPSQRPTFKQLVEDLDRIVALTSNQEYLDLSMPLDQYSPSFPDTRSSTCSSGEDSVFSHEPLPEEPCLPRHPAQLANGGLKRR
Sequence of EPHB2 (P29323 whole entry, looked up): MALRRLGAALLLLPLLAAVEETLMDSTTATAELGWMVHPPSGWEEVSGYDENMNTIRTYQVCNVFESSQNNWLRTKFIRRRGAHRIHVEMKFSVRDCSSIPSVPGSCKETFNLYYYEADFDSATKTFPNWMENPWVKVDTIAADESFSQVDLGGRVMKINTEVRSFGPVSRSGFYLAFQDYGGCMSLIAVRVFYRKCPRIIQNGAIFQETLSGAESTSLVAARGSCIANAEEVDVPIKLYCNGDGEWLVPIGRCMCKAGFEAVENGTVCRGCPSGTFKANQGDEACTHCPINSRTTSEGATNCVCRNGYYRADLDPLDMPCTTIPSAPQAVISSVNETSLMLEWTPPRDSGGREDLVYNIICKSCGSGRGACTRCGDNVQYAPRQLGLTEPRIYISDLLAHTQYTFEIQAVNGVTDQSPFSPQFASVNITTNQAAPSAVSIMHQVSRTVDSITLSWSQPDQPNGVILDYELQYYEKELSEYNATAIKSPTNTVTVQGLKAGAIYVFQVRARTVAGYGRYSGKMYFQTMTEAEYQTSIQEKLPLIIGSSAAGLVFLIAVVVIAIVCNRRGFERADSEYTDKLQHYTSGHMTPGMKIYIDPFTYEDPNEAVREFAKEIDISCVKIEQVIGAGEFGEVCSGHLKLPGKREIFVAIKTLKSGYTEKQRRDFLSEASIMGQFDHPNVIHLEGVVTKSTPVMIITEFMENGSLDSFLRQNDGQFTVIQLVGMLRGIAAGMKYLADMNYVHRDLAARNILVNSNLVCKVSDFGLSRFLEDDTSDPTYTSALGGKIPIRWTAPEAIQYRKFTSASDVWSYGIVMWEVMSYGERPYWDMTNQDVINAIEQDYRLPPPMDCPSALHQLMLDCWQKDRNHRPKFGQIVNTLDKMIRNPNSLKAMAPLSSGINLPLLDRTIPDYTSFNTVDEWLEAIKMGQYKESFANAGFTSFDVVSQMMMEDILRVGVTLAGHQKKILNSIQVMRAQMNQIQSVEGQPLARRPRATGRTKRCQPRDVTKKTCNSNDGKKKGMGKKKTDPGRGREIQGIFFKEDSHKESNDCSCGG
Sequence of Fyn (P06241 whole entry, looked up): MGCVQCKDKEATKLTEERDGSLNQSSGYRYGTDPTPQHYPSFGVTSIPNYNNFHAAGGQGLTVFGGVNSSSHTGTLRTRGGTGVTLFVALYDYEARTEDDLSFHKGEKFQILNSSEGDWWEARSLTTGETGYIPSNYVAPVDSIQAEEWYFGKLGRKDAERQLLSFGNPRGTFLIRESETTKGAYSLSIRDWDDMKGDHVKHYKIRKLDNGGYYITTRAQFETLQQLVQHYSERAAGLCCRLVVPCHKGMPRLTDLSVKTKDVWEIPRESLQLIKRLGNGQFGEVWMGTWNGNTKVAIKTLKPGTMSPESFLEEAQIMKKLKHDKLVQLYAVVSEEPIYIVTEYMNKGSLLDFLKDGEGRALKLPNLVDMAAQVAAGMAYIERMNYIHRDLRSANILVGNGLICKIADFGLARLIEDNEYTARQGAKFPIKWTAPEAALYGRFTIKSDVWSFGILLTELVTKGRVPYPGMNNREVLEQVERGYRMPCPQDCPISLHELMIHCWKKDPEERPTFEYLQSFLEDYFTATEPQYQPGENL
Sequence of EPHB1 (P54762 whole entry, looked up): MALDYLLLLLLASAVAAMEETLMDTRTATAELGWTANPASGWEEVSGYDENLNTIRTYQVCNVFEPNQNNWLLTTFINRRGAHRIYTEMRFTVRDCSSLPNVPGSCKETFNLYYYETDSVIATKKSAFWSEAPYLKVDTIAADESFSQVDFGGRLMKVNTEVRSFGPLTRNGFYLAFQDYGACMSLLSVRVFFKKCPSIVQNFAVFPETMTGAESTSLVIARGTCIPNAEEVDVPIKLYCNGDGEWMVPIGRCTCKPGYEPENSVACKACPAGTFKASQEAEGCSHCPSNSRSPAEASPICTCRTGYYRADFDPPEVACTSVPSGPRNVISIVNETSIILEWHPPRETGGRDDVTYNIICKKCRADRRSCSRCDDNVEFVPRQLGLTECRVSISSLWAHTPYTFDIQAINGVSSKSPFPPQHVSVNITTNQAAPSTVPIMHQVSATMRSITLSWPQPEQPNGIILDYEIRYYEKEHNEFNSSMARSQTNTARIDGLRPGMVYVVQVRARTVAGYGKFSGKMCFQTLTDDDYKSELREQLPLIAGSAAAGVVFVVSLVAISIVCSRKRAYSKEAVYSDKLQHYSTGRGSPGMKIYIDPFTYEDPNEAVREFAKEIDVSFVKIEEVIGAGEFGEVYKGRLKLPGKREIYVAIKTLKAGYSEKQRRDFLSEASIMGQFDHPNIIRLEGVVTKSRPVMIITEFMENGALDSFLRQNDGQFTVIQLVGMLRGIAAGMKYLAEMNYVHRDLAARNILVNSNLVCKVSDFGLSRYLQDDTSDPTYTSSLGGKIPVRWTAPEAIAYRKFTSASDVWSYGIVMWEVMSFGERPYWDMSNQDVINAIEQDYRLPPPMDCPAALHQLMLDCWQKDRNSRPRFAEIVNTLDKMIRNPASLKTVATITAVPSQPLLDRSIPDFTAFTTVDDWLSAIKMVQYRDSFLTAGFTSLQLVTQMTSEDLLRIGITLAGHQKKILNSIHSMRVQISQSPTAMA
Sequence of Grb2 SH2 (P62993 whole entry, looked up, the tested form may be a part): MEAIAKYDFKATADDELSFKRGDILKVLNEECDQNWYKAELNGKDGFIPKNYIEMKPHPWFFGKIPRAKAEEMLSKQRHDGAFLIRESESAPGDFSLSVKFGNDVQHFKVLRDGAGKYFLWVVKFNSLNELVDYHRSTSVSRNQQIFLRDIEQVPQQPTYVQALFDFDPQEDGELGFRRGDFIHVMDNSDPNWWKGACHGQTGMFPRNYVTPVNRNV
Sequence of Fes (P07332 whole entry, looked up): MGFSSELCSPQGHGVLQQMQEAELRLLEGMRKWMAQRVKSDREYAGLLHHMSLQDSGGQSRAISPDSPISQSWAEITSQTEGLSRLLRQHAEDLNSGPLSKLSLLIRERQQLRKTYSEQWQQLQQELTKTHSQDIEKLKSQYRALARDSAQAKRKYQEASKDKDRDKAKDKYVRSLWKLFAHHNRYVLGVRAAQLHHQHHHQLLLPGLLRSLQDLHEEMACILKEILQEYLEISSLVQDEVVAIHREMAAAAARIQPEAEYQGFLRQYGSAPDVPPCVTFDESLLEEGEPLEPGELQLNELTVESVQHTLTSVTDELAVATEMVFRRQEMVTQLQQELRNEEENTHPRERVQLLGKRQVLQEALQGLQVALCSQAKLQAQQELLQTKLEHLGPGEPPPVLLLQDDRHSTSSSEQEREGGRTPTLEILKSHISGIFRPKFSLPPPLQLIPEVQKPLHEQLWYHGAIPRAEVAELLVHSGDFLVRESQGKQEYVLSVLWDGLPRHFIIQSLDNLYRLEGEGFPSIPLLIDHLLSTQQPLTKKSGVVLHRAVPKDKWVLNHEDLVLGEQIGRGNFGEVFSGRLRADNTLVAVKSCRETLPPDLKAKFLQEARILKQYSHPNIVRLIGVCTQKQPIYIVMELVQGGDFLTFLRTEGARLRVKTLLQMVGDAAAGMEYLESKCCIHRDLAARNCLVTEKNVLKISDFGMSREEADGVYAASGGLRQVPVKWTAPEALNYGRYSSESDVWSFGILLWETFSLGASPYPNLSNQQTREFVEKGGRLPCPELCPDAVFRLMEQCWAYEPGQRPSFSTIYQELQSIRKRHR

Sequence	phosphorylation enrichment [1]	phosphorylation enrichment [2]	phosphorylation enrichment [3]	phosphorylation enrichment [4]	phosphorylation enrichment [5]	phosphorylation enrichment [6]	phosphorylation enrichment [7]	phosphorylation enrichment [8]	phosphorylation enrichment [9]	phosphorylation enrichment [10]	phosphorylation enrichment [11]	phosphorylation enrichment [12]	phosphorylation enrichment [13]	SH2 binding enrichment [14]	SH2 binding enrichment [15]	SH2 binding enrichment [16]
CTTFHYNFMCN [TP53_Y234_I232F_YF]	0.479	0.57	0.581	0.501	0.468	1.1	0.923	0.579	0.641	0.672	0.866	0.595	0.4	2.14	1.47	1.64
CTTIHSNYMCN [TP53_Y234_Y234S]	0.448	0.563	0.44	0.478	0.542	0.915	0.853	0.483	0.576	0.588	0.608	0.387	0.479	1.02	1.39	1.1
CTTIHYNNMCN [TP53_Y234_Y236N]	0.532	0.479	0.404	0.486	0.455	0.943	0.734	0.423	0.528	0.538	0.551	0.416	0.367	1.89	0.818	2.45
CTTIHYNYMCD [TP53_Y234_N239D]	0.469	0.515	0.465	0.405	0.647	0.898	0.796	0.57	0.545	0.631	0.625	0.422	0.426	8.55	2.32	1.16
CTTIHYNYMCI [TP53_Y234_N239I]	0.494	2.4	1.05	0.487	5.99	1	0.946	2.52	0.509	1.55	0.859	0.462	1.41	2.6	2.53	1.87
CTTIHYNYMYN [TP53_Y234_C238Y]	0.563	0.69	1.21	0.507	0.945	1.22	1.12	0.877	0.684	0.844	0.91	0.543	1	1.1	0.887	0.843
DASENYFVMDS [TMEM240_Y77_T80M]	0.457	4.43	0.732	0.392	6.62	1.1	1.91	8.76	0.677	7.01	0.952	0.569	1.92	0.598	0.767	1.01
DAVAVYHGKIS [SH2D1A_Y7]	0.533	0.442	0.379	0.442	0.395	0.744	0.593	0.388	0.51	0.492	0.603	0.348	0.369	0.406	0.82	0.717
DCLASYLDKVR [KRT10_Y160_R156C]	0.452	0.659	0.402	0.422	0.55	0.953	0.886	0.56	0.706	0.659	0.842	0.419	0.4	0.55	0.711	0.932
DDDPEYRKFLE [UPF3B_Y160]	0.597	0.7	0.478	0.617	0.612	1.22	1.32	0.669	0.577	0.799	1.06	0.483	0.566	0.547	0.542	0.834
DDFNLYINVKL [MTHFD1_Y52_S49F]	0.558	0.563	0.38	0.46	0.86	1.67	1.47	0.511	0.984	0.997	1.67	0.472	0.483	0.458	0.732	0.794
DDLTDYLMKIL [ACTA1_Y190_R185D]	0.519	0.553	0.457	0.444	0.476	1.1	1.22	0.516	0.758	0.669	1.15	0.548	0.529	0.689	1.26	0.962
DDPRRYQKYGY [OAS1_Y362]	0.499	0.544	0.403	0.426	0.368	0.591	0.598	0.414	0.592	0.446	0.507	0.438	0.368	0.894	1.3	1.05
DDPRTYQKFGF [OAS1_Y362_R361T_YF]	0.526	0.469	0.423	0.717	0.519	0.928	0.825	0.473	0.607	0.544	0.773	0.693	0.439	0.523	0.531	0.78
DGQSVYKLTDF [TBK1_Y153]	0.751	0.37	0.775	2.52	0.426	0.775	0.725	0.434	0.444	0.474	0.765	3.06	0.471	0.513	0.683	0.678
DGTIVCTGLET [USH2A_Y4487_Y4487C]	0.438	0.558	0.582	0.454	0.533	1.12	0.955	0.509	0.837	0.636	1.06	0.499	0.47	0.489	0.632	0.936
DGYTDYAEFAK [MCFD2_Y138_I136T]	0.74	0.706	0.4	0.96	0.829	0.844	1.03	0.754	0.734	0.699	0.765	0.942	0.463	1.22	0.592	0.651
